{
  "source": "patent US9505841B2",
  "about": "“Use of an anti-Ang2 antibody” (Samsung Electronics Co., Ltd., priority 2013, dated 2016)",
  "molecules": {"B1": {"name": "10D6: mouse anti-Ang2 monoclonal antibody from hybridoma KCLRF-BP-00295; heavy chain variable region SEQ ID NO: 7, light chain variable region SEQ ID NO: 9 (antibody, V domains shown)", "VH": "DVQLQESGPGLVKPSQSLSLTCTVTGYSITSDYAWNWIRQFPGNKLEWMGYINYSGNTDYNPSLKSRSSITRDTSKNQFFLQLNSVTTGDTATYYCARGNFEGAMDYWGQGTSVTVSS", "VL": "SIVMTQTPKFLLVSAGDRVTITCKASQSVSNDVAWYQQKPGQSPKLLIYYASNRYPGVPDRFTGSGYGTDFTFTISTVQAEDLAVYFCQQDYSSPWTFGGGTKLEIK", "modifications": "Synthetic (Heavy chain variable region of an anti-Ang2 antibody); Synthetic (Light chain variable region of anti-Ang2 antibody)"}},
  "key": {"mutant Ang2 protein": {"test_system": "mutant Ang2 protein", "experiment": "Epitope ELISA with alanine-mutated Ang2 proteins", "format": "binding, human", "conditions": "A449 substituted with alanine", "description": "To verify the epitope (or specific binding site) of the anti-Ang2 antibody prepared in Example 2, an ELISA was performed using a recombinant protein where a receptor binding domain (RBD) of Ang2 protein in the form of being tagged with Flag was mutated by artificial means.\nEach well of a 96-well MaxiSorp™ flat-bottom plate (Nunc) was coated with 50 ul (microliter) of 1000 nM antibody. Then, the plate was washed five times with 0.05% (v/v) Tween-20-containing PBS (PBST) and blocked with 1% (v/v) BSA-containing PBS at a room temperature for 2 hours. 250 ng of each mutant Ang2 protein obtained by substituting S417, Q418, P419, N421, 1434, D448, A449, P452, Y460, N467, K468, or F469 residue of Ang2 protein tagged with a FLAG sequence (DYKDDDDK, Sigma) at its N-terminal with alanine was added to each well of the plate, which was then allowed to react at a room temperature for 2 hours. […]\nFinally, 50 ul of TMB substrates (Cell signaling) was added to each well of the plate to induce color development at a room temperature for 3 min. and the reaction was ceased by the addition of 50 ul of Stop solution (Cell signaling) and then, OD450 values were measured on a plate reader (Molecular Devices). […]"}, "[1]": {"test_system": "Vascular endothelial cells (HUVEC)", "experiment": "BrdU proliferation assay, vascular endothelial cells", "format": "cell-based, human", "conditions": "2 ug/ml Ang2 with 10 ug/ml antibody; 3 days", "description": "(§1) The measurement assay of the proliferation of vascular and lymphatic endothelial cells was conducted using a BrdU assay kit (Roche) Cell. Vascular endothelial cells of P3˜P8 (HUVEC, ATCC) or lymphatic endothelial cells (Lonza) were placed in a collagen-coated 96-well plate (BD Bioscience) at 3000˜5000 cells/well and cultured in EGM-2 media (Lonza) for 16˜24 hours. A mixture of 2 ug/ml of Ang2 (R&D systems) and 10 ug/ml of antibody 10D6 in 2% EBM media was added to the 96-well plate washed with PBS, which was then cultured for 3 days.\n(§2) For efficiency comparison, an anti-Ang2 antibody (MEDI: Medlmmune Co.) was used. For a BrdU assay, 10 ul of BrdU solution diluted at 1:1,000 was added to each well of the plate to label the cells. The cells were cultured for 1 hour and after the removal of the culture solution, 100 ul of Fixation/Denaturation solution (Roche) was added to each well and then, removed after 30-min wait. An anti-BrdU antibody (Roche) conjugated with peroxidase was diluted in a dilution buffer (Roche) at 1:100, added to each well to react for 1 hour and then, washed four times using a washing buffer (Roche). 100 ul of a TMB substrate was added thereto to react and then, absorption was measured at 450 nm using a Microplate reader (Perkin Elmer)."}, "[2]": {"test_system": "lymphatic endothelial cells", "experiment": "BrdU proliferation assay, lymphatic endothelial cells", "format": "cell-based", "conditions": "2 ug/ml Ang2 with 10 ug/ml antibody; 3 days", "description": "as §1, §2"}, "E-selectin": {"test_system": "E-selectin", "experiment": "LPS-induced mRNA expression of E-selectin in HUVEC (qPCR)", "format": "cell-based, human", "conditions": "100 ng/ml LPS 5 hours, 0.2 ug/ml Ang1 or 0.1 ug/ml Ang2 + 0.5 ug/ml antibody", "description": "To see anti-inflammatory effects by antibody 10D6, HUVEC (ATCC) cells (4×10^5) were treated with Ang2 alone or Ang2 together with antibody 10D6, and a group in which Ang1 and Ang2 (R&D systems) and Regeneron Co. antibody (RG antibody) were co-treated was included as a control group. HUVEC cells were treated with 0.2 ug/ml of Ang1, 0.1 ug/ml of Ang2, or 0.1 ug/ml of Ang2 and 0.5 ug/ml of antibody, respectively and after 30-min. pre-incubation, they were treated with 100 ng/ml of LPS (Sigma) to induce inflammatory response and incubated for 5 hours.\nThe degree of the inflammatory response was identified by measuring the mRNA expression degree of an inflammatory adhesion substance (ICAM-1, E-selectin). The cells were washed using PBS, RNA was extracted using RNeasy Mini kit (Qiagen), and among them, 2 ug of RNA was synthesized into cDNA using Transcriptor First Strand cDNA synthesis kit (Roche). qPCR reaction was performed using RT2 SYBR™ Green Mastermix (Qiagen) and LightCycler™ 480 Real-Time PCR System (Roche). As an internal control for calibrating the amount of RNA in a sample, HPRT1 was used, and qPCR complied with the following procedures with regard to all the primers.\nStep 1: 95° C., 10 min; Step 2 (45 cycles): Step 2-1: 95° C., 15 sec; Step 2-2: 60° C., 1 min; Step 3: 65° C., 15 sec; Step 4: 95° C., continuous (every 20° C.); Step 6: 40° C., 10 sec."}, "LLC tumor": {"test_system": "LLC tumor", "experiment": "Co-administration of anti-Ang2 antibody and cisplatin in LLC lung cancer animal model", "format": "in vivo, mouse", "conditions": "LLC mice; antibody 10 mg/kg i.p. every three days, five times; cisplatin 3 mg/kg i.p. once; control Fc of IgG1", "description": "The synergistic effect of co-treatment of antibody 10D6 and cisplatin was examined.\nIn particular, referring to Example 14, LLC tumor cells were subcutaneously injected into mice. When the size of tumors reached 50˜100 mm^3, anti-Ang2 antibody 10D6 was injected at the concentration of 10 mg/kg via an intraperitoneal injection every three days a total of five times. After administering antibody 10D6 twice, 3 mg/kg of cisplatin (Sigma-Aldrich) was intraperitoneally injected once. The size of tumor (V) was calculated using the following formula: Volume (V)=(width)2×length/2\nFor comparison, the same experiment was performed to a control group treated with Fc of IgG1 and a comparative group treated with antibody 4H10.\nIn addition, an experiment was performed to examine whether the synergistic effect obtained by co-administration of 10D6 and cisplatin as described above is due to the increased transporting efficiency of the administered cisplatin induced by the vascular normalization by treatment of 10D6. Cisplatin binds to DNA in a living body and induces crosslinking, thereby inducing cell death. Rat monoclonal anti-Cisplatin modified DNA (CP9/19) antibody (1:200, Abcam), which is capable of binding to DNA modified by cisplatin in tumor frozen sections, and hamster anti-CD31 antibody (1:200, Millipore), were used for immunofluorescence staining, and fluorescence images were obtained using LSM5 confocal microscope (Zeiss). In addition, to examine necrotic region, the tumor frozen sections were stained with H&E according to standard protocol, and then, Eosin+ cell region in tumor was observed. The obtained results are illustrated in FIG. 18C."}},
  "data": [
    {"molecule": "B1", "values": [
      {"measurement": "binding affinity (%) with mutant Ang2 against the binding affinity with the native Ang2, 449", "setting": "mutant Ang2 protein", "value": 97.86, "unit": "%"},
      {"measurement": "growth of vascular endothelial cells (BrdU)", "setting": "[1]", "value": "increased"},
      {"measurement": "growth of lymphatic endothelial cells (BrdU)", "setting": "[2]", "value": "increased"},
      {"measurement": "expression of E-selectin induced by LPS", "setting": "E-selectin", "value": "remarkably suppressed"},
      {"measurement": "tumor size decreased by, compared to the control", "setting": "LLC tumor", "value": 38.5, "unit": "%"}
    ]}
  ]
}
